From patent US20170211072A1 (COLD SPRING HARBOR LABORATORY, published 2017)
Blank lines part the entries; values can stand above or below the binder they belong to.

Experiments:
p53Ψ [1] = molecular target: T1, p53Ψ (Homo sapiens (Human), UniProt P04637 1-225); experiment: co-immunoprecipitation from submitochondrial fractions, immunoblot
T1 construct: Whole p53Ψ isoform expressed ectopically in A549 cells; It was tested in submitochondrial fractions by co-immunoprecipitation; also called p53-psi; p53Ψ isoform

empty GST proteins = molecular target: T2, empty GST proteins (UniProt P08515 1-218 = GST); experiment: GST pull-down with purified proteins
T2 construct: Negative control of the pull-down
T2 sequence (P08515 whole entry): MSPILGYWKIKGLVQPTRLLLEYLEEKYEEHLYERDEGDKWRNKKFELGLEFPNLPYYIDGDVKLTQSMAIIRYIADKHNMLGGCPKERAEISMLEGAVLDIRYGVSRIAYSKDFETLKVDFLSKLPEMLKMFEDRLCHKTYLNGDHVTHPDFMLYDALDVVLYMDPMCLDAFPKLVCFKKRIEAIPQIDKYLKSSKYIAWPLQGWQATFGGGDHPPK

p53Ψ [2] = molecular target: T1, p53Ψ; experiment: co-immunoprecipitation from submitochondrial fractions with an anti-p53 N-terminal antibody, immunoblot

binding result (p53Ψ [1]): no binding
B1: BAK (other, UniProt Q16611 2-211, looked up)
chain: ASGQGPGPPRQECGEPALPSASEEQVAQDTEEVFRSYVFYRHQQEQEAEGVAAPADPEMVTLPLQPSSTMGQVGRQLAIIGDDINRRYDSEFQTMLQHLQPTAENAYEYFTKIATSLFESGINWGRVVALLGFGYRLALHVYQHGLTGFLGQVTRFVVDFMLHHCIARWIAQRGGWVAALNLGNGPILNVLVVLGVVLLGQFVVRRFFKS

B2: purified p53Ψ (aa 102-243) (other)
chain: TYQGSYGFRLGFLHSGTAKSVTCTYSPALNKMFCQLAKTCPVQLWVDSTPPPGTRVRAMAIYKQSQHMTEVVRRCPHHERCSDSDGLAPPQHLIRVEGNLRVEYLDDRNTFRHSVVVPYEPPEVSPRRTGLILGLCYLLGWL
notes: Purified recombinant fragment used in the GST pull-down; also called recombinant p53Ψ
binding result (empty GST proteins): no binding

binding result (p53Ψ [2]): no binding
B3: MnSOD (enzyme, UniProt P04179 25-222, looked up)
chain: KHSLPDLPYDYGALEPHINAQIMQLHHSKHHAAYVNNLNVTEEKYQEALAKGDVTAQIALQPALKFNGGGHINHSIFWTNLSPNGGGEPKGELLEAIKRDFGSFDKFKEKLTAASVGVQGSGWGWLGFNKERGHLQIAACPNQDPLQGTTGLIPLLGIDVWEHAYYLQYKNVRPDYLKAIWNVINWENVTERYMACKK
notes: Endogenous protein of A549 cells, a human cell line; also called SOD2
